Measurements from US20230159603A1 (XILIO DEVELOPMENT, published 2023).

B1: rhIL-12RB2-Fc (Fc fusion, human, UniProt Q99665 24-622, looked up, not shown: a dimerising Fc or GST)
chain: KIDACKRGDVTVKPSHVILLGSTVNITCSLKPRQGCFHYSRRNKLILYKFDRRINFHHGHSLNSQVTGLPLGTTLFVCKLACINSDEIQICGAEIFVGVAPEQPQNLSCIQKGEQGTVACTWERGRDTHLYTEYTLQLSGPKNLTWQKQCKDIYCDYLDFGINLTPESPESNFTAKVTAVNSLGSSSSLPSTFTFLDIVRPLPPWDIRIKFQKASVSRCTLYWRDEGLVLLNRLRYRPSNSRLWNMVNVTKAKGRHDLLDLKPFTEYEFQISSKLHLYKGSWSDWSESLRAQTPEEEPTGMLDVWYMKRHIDYSRQQISLFWKNLSVSEARGKILHYQVTLQELTGGKAMTQNITGHTSWTTVIPRTGNWAVAVSAANSKGSSLPTRINIMNLCEAGLLAPRQVSANSEGMDNILVTWQPPRKDPSAVQEYVVEWRELHPGGDTQVPLNWLRSRPYNVSALISENIKSYICYEIRVYALSGDQGGCSSILGNSKHKAPLSGPHINAITEEKGSILISWNSIPVQEQMGCLLHYRIYWKERDSNSQPQLCEIPYRVSQNSHPINSLQPRVTYVLWMTALTAAGESSHGNEREFCLQGKAN
B2: recombinant human IL-12 (rhIL-12) control (ligand)
chain 1: IWELKKDVYVVELDWYPDAPGEMVVLTCDTPEEDGITWTLDQSSEVLGSGKTLTIQVKEFGDAGQYTCHKGGEVLSHSLLLLHKKEDGIWSTDILKDQKEPKNKTFLRCEAKNYSGRFTCWWLTTISTDLTFSVKSSRGSSDPQGVTCGAATLSAERVRGDNKEYEYSVECQEDSACPAAEESLPIEVMVDAVHKLKYENYTSSFFIRDIIKPDPPKNLQLKPLKNSRQVEVSWEYPDTWSTPHSYFSLTFCVQVQGKSKREKKDRVFTDKTSATVICRKNASISVRAQDRYYSSSWSEWASVPCS
chain 2: RNLPVATPDPGMFPCLHHSQNLLRAVSNMLQKARQTLEFYPCTSEEIDHEDITKDKTSTVEACLPLELTKNESCLNSRETSFITNGSCLASRKTSFMMALCLSSIYEDLKMYQVEFKTMNAKLLMDPKRQIFLDQNMLAVIDELMQALNFNSETVPQKSSLEEPDFYKTKIKLCILLHAFRIRAVTIDRVMSYLNAS
notes: also called wild-type rhIL-12

Experiments:
[1] = target: T1, AK384; assay: SPR, IL-12 receptor immobilised, IL-12 construct flowed, 25 C, FIGS. 35A-35D
T1 construct: Masked IL-12 heterodimer, IL-12Rβ1 (24-237) mask; tested uncleaved
Description: (§1) Sensor Chips were coated and immobilized with IL-12 receptors. Dilutions of IL-12 constructs were flowed over the chips with the immobilized IL-12 receptors to determine the on rate at 25 degrees C. At equilibrium (approximately 3-4 minutes), the flow buffer was changed to PBST, to determine the off rates over 6 minutes. Between each run the chip was regenerated. The tables represent the SPR data (FIGS. 34 and 35).

[2] = target: B1; assay: SPR, IL-12 receptor immobilised, IL-12 flowed, 25 C, FIGS. 35A-35D
Description: as §1

[3] = target: rhIL-12RB1-Fc (human, UniProt P42701 24-545, limits assumed); assay: SPR, IL-12 receptor immobilised, IL-12 flowed, 25 C, FIGS. 34A-34D
Description: as §1

binding result [1] | binding result [2] | binding result [3] | Binder
binds |  |  | B1
 | binds | binds | B2
